Laboratory results from article PMC4703215, “Structural Based Analyses of the JC Virus T-Antigen F258L Mutant Provides Evidence for DNA Dependent Conformational Changes in the C-Termini of Polyomavirus Origin Binding Domains”.

T1: JCV T-ag OBD wt (JC virus (JCV), UniProt P03072 132-261)
T1 sequence: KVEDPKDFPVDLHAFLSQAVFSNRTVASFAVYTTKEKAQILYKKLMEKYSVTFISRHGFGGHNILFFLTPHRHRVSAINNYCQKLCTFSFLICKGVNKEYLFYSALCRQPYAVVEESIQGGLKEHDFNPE

B1: Site II duplex, four GAGGC pentanucleotides (dsDNA)
DNA 1: TACAGGAGGCCGAGGCCGCCTCCGCCTCCAAGC
DNA 2: GCTTGGAGGCGGAGGCGGCCTCGGCCTCCTGTA
B2: TBS probe, single GAGGC (dsDNA)
DNA 1: CCGAGGCCATTCTGAGAATTGAGC
DNA 2: GCTCAATTCTCAGAATGGCCTCGG

Experiments:
[1] = target: T1, JCV T-ag OBD wt; assay: ITC; ITC: 10 mM Na phosphate pH 7.0, 50 mM NaCl, 5 mM DTT; anisotropy: 20 mM Hepes pH 7.4, 50 mM NaCl, 0.01% NP40, 0.1 mM DTT, 15 nM probe; temperature not stated; conditions: protein: recombinant; tags: expressed from pGEX1λT (GST vector)
[2] = target: T1, JCV T-ag OBD wt; assay: fluorescence anisotropy; ITC: 10 mM Na phosphate pH 7.0, 50 mM NaCl, 5 mM DTT; anisotropy: 20 mM Hepes pH 7.4, 50 mM NaCl, 0.01% NP40, 0.1 mM DTT, 15 nM probe; temperature not stated; conditions: protein: recombinant; tags: expressed from pGEX1λT (GST vector); label: 5' fluorescein (six-carbon linker) on one strand

Binder | Kd [1] [µM] | Kd [2] [µM]
B1 | 0.172 | –
B2 | – | 0.093 ± 0.021
